This note sets out measurements from article PMC9834408, “The SPOC domain is a phosphoserine binding module that bridges transcription machinery with co- and post-transcriptional regulators” (Nature Communications, 2023).

As a reminder, the Kd is the concentration at which binding is half-saturated. Low readings indicate higher affinity, high ones lower affinity.

Test [1] deals with WTAP peptide (first 19 N-terminal amino acids) phosphorylated at S14 (UniProt Q15007). Kind of test: fluorescence polarisation; fluorescence anisotropy; 90 nM labelled peptide (Atto-488 on CTD peptides, FAM on NCoR and FMR1 peptides) titrated with increasing concentrations of SPOC domain; 20 °C; 25 mM Tris-Cl pH 7.4, 25 mM NaCl, 1 mM DTT; three independent dilution series. In general terms: Polarisation of emitted light reports the rotation of a fluorescent probe.

A further test concerns the target 2×S5P CTD diheptapeptide. Described as above.

SHARP SPOC (3496–3664 aa), sequence (Q96T58 3496-3664): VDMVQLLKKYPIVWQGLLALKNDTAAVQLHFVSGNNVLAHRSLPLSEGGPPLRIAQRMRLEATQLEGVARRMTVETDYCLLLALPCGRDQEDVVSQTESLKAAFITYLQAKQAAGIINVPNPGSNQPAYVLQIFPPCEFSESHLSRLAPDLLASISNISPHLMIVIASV

In turn, “RBM15 SPOC (775–960 aa) (from UniProt Q96T37 775-960) (domain or fragment)” returned a Kd in test [1] of 21.5 µM. For the substance “SHARP SPOC (3496–3664 aa) (from UniProt Q96T58 3496-3664) (domain or fragment)”, in the test with 2×S5P CTD diheptapeptide, the equilibrium dissociation constant (Kd) was 20.6 µM.
